Among the targets are HLA-A*31:01; HLA-A*11:01; HLA-A*03:01; HLA-A*68:01; HLA-A*33:01.
Assay in all cases: IEDB peptide-MHC binding, purified MHC/competitive/radioactivity; filed as Kd, often an IC50 or EC50 that approximates it; ≥ and ≤ were set here for values at or beyond the usual limits of such assays
Setting [1] is: source organism: Mammarenavirus juninense.
[2] abbreviates: source organism: Vaccinia virus WR.
[3] abbreviates: source organism: Dengue virus 3 Martinique/1243/1999.
Where [4] appears, read: source organism: Dengue virus 2 Jamaica/1409/1983.
Where [5] appears, read: source organism: Dengue virus 4 Philippines/H241/1956.
Setting [6] is: source organism: Mammarenavirus brazilense.
Where [7] appears, read: source organism: Dengue virus 1 Brazil/97-11/1997.
Setting [8] is: source organism: Dengue virus 4 Dominica/814669/1981.
[9] abbreviates: source organism: Dengue virus 2 Peru/IQT2913/1996.

Bounds are passed on as bounds.

As for GFKNGSRHSH, the Kd in the experiment with HLA-A*31:01 (setting [1]) is 882 nM; with HLA-A*11:01 (setting [1]) it was no less than 42700 nM; in the experiment with HLA-A*03:01 (setting [1]) it was 14400 nM; with HLA-A*68:01 (setting [1]) it was 2960 nM.
In the case of GLLDSIKMIY, the Kd came to 1540 nM in the experiment with HLA-A*31:01 (setting [2]); 3410 nM in the experiment with HLA-A*11:01 (setting [2]); 45.9 nM with HLA-A*03:01 (setting [2]); 2910 nM with HLA-A*33:01 (setting [2]); 818 nM with HLA-A*68:01 (setting [2]).
For GMDYEEYKSK the same measures were 1690 nM, 249 nM, 29.7 nM, no less than 36000 nM and no less than 21100 nM.
As for GSLITCAKFK, the Kd in the experiment with HLA-A*11:01 (source organism: Dengue virus 1 Nauru/West Pac/1974) was 244 nM.
Consider GTVMDIISRK, for which the Kd with HLA-A*11:01 (setting [3]) is 47.6 nM.
GVLARWGTFK: the Kd in the experiment with HLA-A*11:01 (setting [3]) came to 74.4 nM; with HLA-A*03:01 (setting [3]), 5.23 nM.
On to GVTSSGAIYK, for which the Kd is 1350 nM with HLA-A*31:01 (setting [2]); 45.9 nM with HLA-A*11:01 (setting [2]); 181 nM with HLA-A*03:01 (setting [2]); no less than 10000 nM in the experiment with HLA-A*33:01 (setting [2]); 81.3 nM in the experiment with HLA-A*68:01 (setting [2]).
For HLKCRLRMDK, in the experiment with HLA-A*03:01 (setting [4]), the Kd worked out at 119 nM.
As for HYDQENPYR, the Kd in the experiment with HLA-A*33:01 (setting [5]) stood at 7870 nM.
Take IFNEDTSYY: the Kd with HLA-A*31:01 (setting [2]) was no less than 77900 nM; with HLA-A*11:01 (setting [2]), 6890 nM; with HLA-A*03:01 (setting [2]) it was 6000 nM; in the experiment with HLA-A*33:01 (setting [2]), no less than 77700 nM; in the experiment with HLA-A*68:01 (setting [2]) it was no less than 20000 nM.
On the same counts, the results for IFVSLVKKNK are 69.1 nM, 1860 nM, 365 nM, 55 nM and 56.3 nM.
On the same counts, the results for IILARNEEGR are 71.2 nM, no less than 24300 nM, 9520 nM, 344 nM and 1160 nM.
In the case of ILKINSVKY, the Kd with HLA-A*31:01 (setting [2]) is 1310 nM; with HLA-A*11:01 (setting [2]), 16200 nM; in the experiment with HLA-A*03:01 (setting [2]), 831 nM; in the experiment with HLA-A*33:01 (setting [2]), 12900 nM; with HLA-A*68:01 (setting [2]), 1820 nM.
Regarding ILKRWGTIK, the Kd with HLA-A*03:01 (setting [4]) came out at 14.2 nM.
As for ILQLIRHGR, the Kd was found to be 0.975 nM with HLA-A*31:01 (setting [2]); 725 nM in the experiment with HLA-A*11:01 (setting [2]); 1430 nM with HLA-A*03:01 (setting [2]); 2.62 nM with HLA-A*33:01 (setting [2]); 75.2 nM with HLA-A*68:01 (setting [2]).
For IMDKEQLLK the same measures were 1130 nM, 22 nM, 10.2 nM, 6380 nM and 1110 nM.
On the same counts, the results for ITGNNIILSK are 2460 nM, 0.713 nM, 3.51 nM, 2000 nM and 7.62 nM.
On the same counts, the results for IVSLCPTKK are 1610 nM, 54.1 nM, 359 nM, 7690 nM and 912 nM.
On to KAGQNIRLSH, for which the Kd in the experiment with HLA-A*31:01 (setting [6]) was 5260 nM; with HLA-A*11:01 (setting [6]), 12800 nM; with HLA-A*03:01 (setting [6]), 1680 nM; with HLA-A*33:01 (setting [6]) it was no less than 70000 nM; in the experiment with HLA-A*68:01 (setting [6]) it was no less than 70100 nM.
Turning to KATLTEGVYR, the Kd with HLA-A*31:01 (setting [5]) is 76 nM.
For KIFSEVTPK, the Kd with HLA-A*03:01 (source organism: Homo sapiens) was determined as 10 nM.
On to KKNGAIKVLR, for which the Kd in the experiment with HLA-A*31:01 (setting [7]) is no less than 70000 nM.
On to KNKAWMVHR, for which, in the experiment with HLA-A*31:01 (setting [3]), the Kd is 1.18 nM.
For the sequence LTVCYVLTGR, the Kd with HLA-A*68:01 (setting [4]) was 6.43 nM.
As for LTYQNKVVR, the values for the Kd with HLA-A*31:01 (setting [4]) and with HLA-A*68:01 (setting [4]) were 11.3 nM and 46.1 nM, respectively.
Regarding MSTYGWNIVK, the Kd in the experiment with HLA-A*68:01 (setting [3]) is 6.17 nM.
For the sequence MTLMKGASR, the Kd is 30.5 nM in the experiment with HLA-A*31:01 (setting [8]), 11.6 nM with HLA-A*33:01 (setting [8]) and 52.3 nM with HLA-A*68:01 (setting [8]).
With NKKPRLCTR, the Kd in the experiment with HLA-A*33:01 (setting [3]) was 3910 nM.
Regarding NTNLIKCSDH, the results for the Kd in the experiment with HLA-A*31:01 (setting [6]) and with HLA-A*33:01 (setting [6]) were no less than 37500 nM and no less than 60300 nM, respectively.
With QMWTLMYFHR, the figures for the Kd in the experiment with HLA-A*31:01 (setting [4]) and in the experiment with HLA-A*33:01 (setting [4]) were 1.86 nM and 35.3 nM, respectively.
As to QVYFESFVR, the Kd with HLA-A*11:01 (source organism: Lymphocytic choriomeningitis virus (strain Armstrong)) stood at 54.8 nM.
On to RNKKPRLCTR, for which the Kd in the experiment with HLA-A*31:01 (setting [3]) is 92.6 nM.
On the same count and under the same terms, as for RVPSHLAHR, the figure is 0.845 nM.
Regarding RVYADPMALK, the Kd with HLA-A*11:01 (setting [5]) was 90.3 nM; with HLA-A*03:01 (setting [5]), 6.98 nM; with HLA-A*68:01 (setting [5]) it was 16.1 nM.
Take SLRETACLGK: the Kd in the experiment with HLA-A*03:01 (setting [7]) came out at 8.06 nM.
Turning to TIIGRRLQR, the Kd with HLA-A*33:01 (setting [5]) was 416 nM; with HLA-A*68:01 (setting [5]), 617 nM.
In the case of TMPLVMAWR, the Kd with HLA-A*31:01 (setting [5]) is 8.48 nM; in the experiment with HLA-A*33:01 (setting [5]), 6.43 nM.
In the case of TVMAFHLTTR, the Kd came out at 1.57 nM in the experiment with HLA-A*31:01 (setting [9]), 108 nM in the experiment with HLA-A*11:01 (setting [9]), 8.12 nM with HLA-A*33:01 (setting [9]) and 12.2 nM in the experiment with HLA-A*68:01 (setting [9]).
On to VLAFITFLR, for which the Kd with HLA-A*31:01 (setting [5]) is 4.41 nM; with HLA-A*03:01 (setting [5]), 267 nM; with HLA-A*33:01 (setting [5]) it was 70.4 nM; with HLA-A*68:01 (setting [5]), 8.39 nM.
Turning to YFWQKKKQR, the Kd with HLA-A*31:01 (setting [7]) is 2220 nM; with HLA-A*33:01 (setting [7]), 98.2 nM.

Values taken from the Immune Epitope Database (IEDB).
